Results on one molecule are retold here after paper PMC7907060, “Interaction of Plasmodium falciparum apicortin with α- and β-tubulin is critical for parasite growth and survival” (Scientific Reports, 2021).

For experiment [1], the target named is T1, recombinant Plasmodium falciparum β-tubulin (Plasmodium falciparum, UniProt Q7KQL5 1-445).
T1 construct: Plasmodium falciparum β-tubulin, cloned in pET28a+; also called Pfβ-tubulin
Briefly: SPR; apicortin (12 µM) immobilised by amine coupling on a gold sensor chip; tubulins 100 nM-1 µM injected, 500 s; PBS; Autolab ESPRIT. The settings on record: both partners purified.

Experiment [2] addresses T2, recombinant Plasmodium falciparum α-tubulin-I (Plasmodium falciparum, UniProt Q6ZLZ9 1-453).
T2 construct: Plasmodium falciparum α-tubulin-I, cloned in pET28a+; also called Pfα-tubulin-I
The experiment is described as above. The settings on record: both partners purified.

B1: recombinant Plasmodium falciparum apicortin (natural protein, UniProt C0H4E4 1-238, looked up)
chain: MENFDEVIKEYQKYLEGKEKTHKINSCKHPCCEEDNLKSVKNYFKVYHKKYIPSIIQKKKKERNEHAPPLLKDIQDKRCTNVFERLNDKQFYTGVQKTKFMELLKNNKNKSSYCYNNIKVFSTMLKKPCNYVVTPGTLGIQKYGIQTGRPKTIFLFNNEKKYDKGVYFLVKSYIKNIKSLCYEITKILQPSIGPTRKIYDQNFSLVRNVNDLINGGKYLCTSGDPPAPIRNLSLHFLT
notes: Plasmodium falciparum apicortin, cloned in pET28a+; the His tag is surmised from pET28a+ and Ni-NTA; also called PfApicortin
As usually defined, the Kd is a measure of binding affinity in units of concentration. For B1, the Kd worked out at 0.75 µM in experiment [1] and 0.12 µM in experiment [2].
